Assay results: paper PMC4259810

Legend:
[1] = molecular target: DLC1 Rho-GAP domain, 609-878 (UniProt Q96QB1); experiment: GST pull-down from cotransfected cells, GFP blot; settings: sites S120,S205,S422,S509
DLC1 500-1,091 = DLC1 500-1,091 (UniProt Q96QB1); experiment: GST pull-down from cotransfected cells, GFP blot; settings: reference: GST-(1–550)-WT; sites S120,S205,S422,S509

Row | Substance | binding against the reference ([1]; reference: GST-(1–550)-WT) | binding against the reference (DLC1 500-1,091) | binding against the reference ([1]; reference: GST-DLC1(80–550)-WT)
1 | DLC1 1-550 (from UniProt Q96QB1-1) GST-(1–550)-4A | stronger | stronger | –
2 | DLC1 80-550 (from UniProt Q96QB1-1) GST-DLC1(80–550)-4A | – | – | stronger
